Test results: patent US20040132157A1

B1: recombinant human ADAM protein (metalloprotease region and disintegrin region expressed in Escherichia coli from plasmid pMDH) (protein)
chain: VQEHEKYIEYYLVLDNGEFKRYNENQDEIRKRVFEMANYVNMLYKKLNTHVALVGMEIWTDKDKIKITPNASFTLENFSKWRGSVLSRRKRHDIAQLITATELAGTTVGLAFMSTMCSPYSVGVVQDHSDNLLRVAGTMAHEMGHNFGMFHDDYSCKCPSTICVMDKALSFYIPTDFSSCSRLSYDKFFEDKLSNCLFNAPLPTDIISTPICGNQLVEMGEDCDCGTSEECTNICCDAKTCKIKATFQCALGECCEKCQFKKAGMVCRPAKDECDLPEMCNGKSGNCPDDRFQVNGF

Experiments:
[1] = target: recombinant human ADAM protein (metalloprotease region and disintegrin region expressed in Escherichia coli from plasmid pMDH) (human) (UniProt Q9UKQ2); assay: cell-based or functional assay
[2] = target: T1, Nma-Pro-Lys-Pro-Leu-Ala-Nva-Trp-Lys(DNP)-NH2
T1 chain: PKPLAXWK

[3] = target: T2, MOCAc-Arg-Pro-Lys-Pro-Tyr-Ala-Nva-Trp-Met-Lys(DNP)-NH2
T2 chain: RPKPYAXWMK

| Molecule | IC50 value (concentration of a test compound which 50% inhibits the protease activity) [1] [µM] | fluorescent intensity (excitation 340 nm, measuring 450 nm) after 2 hours at 37 C [2] | fluorescent intensity (excitation 328 nm, 393 nm) after 22 hours at 37 C [3] |
| --- | --- | --- | --- |
| N-CBZ-Pro-Leu-Gly-hydroxamate (Sigma C8537) (peptide) | 100 |  |  |
| B1 |  | the fluorescent intensity in the case of addition of the enzyme solution was 180 | the fluorescent intensity of 70 was shown when the protein was added |
